Target: T1, carboxypeptidase A
T1 sequence (P00730 111-419, species assumed, looked up): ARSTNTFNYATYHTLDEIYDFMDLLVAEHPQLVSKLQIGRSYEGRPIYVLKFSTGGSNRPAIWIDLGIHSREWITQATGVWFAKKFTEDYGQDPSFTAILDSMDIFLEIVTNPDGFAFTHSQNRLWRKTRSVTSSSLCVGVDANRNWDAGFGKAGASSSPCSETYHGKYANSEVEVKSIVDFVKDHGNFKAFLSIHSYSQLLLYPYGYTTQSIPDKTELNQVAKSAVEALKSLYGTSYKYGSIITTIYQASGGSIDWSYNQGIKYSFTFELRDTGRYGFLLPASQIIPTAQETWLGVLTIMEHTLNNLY
Test: carboxypeptidase inhibition (Ki); reference wild PCI

EQHADPICNKPCKTHDDCSGAWFCQACWNSARTCGP [PCIdelY37V38G39]
decrease of the inhibitory capacity against the wild form (orders of magnitude): 3

Reference: patent US6379959
